Data taken from US20090054337A1.

Target: natriuretic peptide receptor-B (NPR-B) on human aortic endothelial cells (human) (UniProt P20594)
Experiment: cell-based or functional assay

Chain of UniProt P20594 (P20594 23-1047): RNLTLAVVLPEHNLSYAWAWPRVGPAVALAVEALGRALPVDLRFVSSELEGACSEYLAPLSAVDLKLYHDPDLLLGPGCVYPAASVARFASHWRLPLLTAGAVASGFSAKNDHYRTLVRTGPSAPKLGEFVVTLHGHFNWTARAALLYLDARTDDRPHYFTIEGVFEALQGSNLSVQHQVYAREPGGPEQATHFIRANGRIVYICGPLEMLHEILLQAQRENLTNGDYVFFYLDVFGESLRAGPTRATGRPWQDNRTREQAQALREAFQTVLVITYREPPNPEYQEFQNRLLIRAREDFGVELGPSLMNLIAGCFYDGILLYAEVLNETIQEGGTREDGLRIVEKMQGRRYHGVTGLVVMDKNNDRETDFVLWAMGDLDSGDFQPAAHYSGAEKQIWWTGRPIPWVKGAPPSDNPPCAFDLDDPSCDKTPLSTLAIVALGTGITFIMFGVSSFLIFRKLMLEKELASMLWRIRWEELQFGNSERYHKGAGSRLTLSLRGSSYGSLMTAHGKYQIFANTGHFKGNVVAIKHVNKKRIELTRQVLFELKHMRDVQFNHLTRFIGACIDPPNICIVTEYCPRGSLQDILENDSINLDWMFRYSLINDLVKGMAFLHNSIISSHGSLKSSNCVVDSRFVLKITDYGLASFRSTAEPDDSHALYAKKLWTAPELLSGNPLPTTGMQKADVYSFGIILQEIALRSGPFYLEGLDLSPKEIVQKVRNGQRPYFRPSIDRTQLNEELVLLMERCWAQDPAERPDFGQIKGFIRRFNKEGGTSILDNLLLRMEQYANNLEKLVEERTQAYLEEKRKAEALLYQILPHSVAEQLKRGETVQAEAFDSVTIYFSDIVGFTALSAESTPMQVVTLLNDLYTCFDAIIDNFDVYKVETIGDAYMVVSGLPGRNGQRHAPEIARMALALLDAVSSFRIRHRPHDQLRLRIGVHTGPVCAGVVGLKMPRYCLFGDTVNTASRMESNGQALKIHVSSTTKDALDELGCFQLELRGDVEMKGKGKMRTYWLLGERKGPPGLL

cGMP in HAEC with 10^-6 M CNP in the presence of the NPR-B antibody (1:100): 0.08 pmol/mL
cGMP in HAEC with 10^-6 M CNP, no antibody: 0.17 pmol/mL
Substance: human CNP (from UniProt P23582 74-126) (peptide)
